Assay results from patent publication US20100323957A1, “NOVEL ASSAY FOR INHIBITORS OF EGFR” (THE REGENTS OF THE UNIVERSITY OF CALIFORNIA THE OFFICE OF …, priority 2007, published 2010).
Positions count from the first letter of the chain named. In names and notes the source's numbering stands.

Columns and labels:
full-length EGFR = biological target: T1, full-length EGFR (Homo sapiens, UniProt P00533); experiment: Cell-based assay of EGFR autophosphorylation, Cos-7 cells co-transfected with EGFR and MIG6; conditions: co-expression with EGFR, EGF 50 ng/ml, western blot
T1 construct: Cos-7 cells co-transfected with constructs containing full-length EGFR and MIG6; expressed in transfected cells; host or cells: Cos-7
Excerpt: The wild-type and mutant forms of the EGFR kinase domain were expressed and purified using methods known in the art and described in Zhang et al., (2006). The 60-residue MIG6 peptide was expressed in bacteria as a glutathione S-transferase (GST)-fusion protein, purified and treated with the TEV protease to remove the GST-moiety. The wild-type and Y358A mutant MIG6(segments 1-2) peptides were fused to a Trp DLE leader peptide and expressed as inclusion bodies and purified as described. All other MIG6 peptides were produced using solid phase synthesis. […] The binding affinities between the kinase domain and fluorescein-labeled MIG6 peptides were measured by monitoring the change of fluorescence anisotropy during the titration and fitting the data to a single-site binding model. Kinase assays in solution and on vesicle were performed using methods known in the art and described herein. Cell-based inhibition assays were performed using Cos-7 cells co-transfected with constructs containing full-length EGFR and MIG6.
For cell-based assays, Cos-7 cells were co-transfected using Fugene 6 (Roche) with the DNA encoding the N-terminal Flag-tagged EGFR in pcDNA3.1 constructs and the wild-type or mutants of the MIG6 genes with a C-terminal Myc tag (also in pcDNA3.1). Cells were cultured for 36 h after transfection and serum-starved for 12 h. Cells were treated with EGF (50 ng ml^−1) for ˜5 min at 37° C., lysed and subjected to western blot analyses. The levels of total EGFR, EGFR autophosphorylation and MIG6 were probed using the anti-EGFR antibody SC03 (Santa Cruz), anti-phosphotyrosine antibody 4G10 (Upstate) and an anti-Myc antibody (Cell Signalling), respectively.

[1] = biological target: T2, EGFR kinase domain L834R mutant (Homo sapiens, UniProt P00533, L858R); experiment: Kinase assay in solution, L834R mutant kinase domain; type: biochemical; conditions: for IC50: L834R at 200 nM, MnCl2 10 mM, read-out: IC50 for inhibition of L834R mutant kinase domain
T2 construct: DNA encoding residues 672-998 of human EGFR was cloned into pFAST BAC HT; made in house; host or cells: Sf9 insect cells (baculovirus)
Protocol: To test the role of segment 2, we produced a longer peptide (residues 336-412, MIG6(segments 1-2)), and analyzed its effect on a variant of the EGFR kinase domain that contains a mutation (L834R) that renders it constitutively active in the absence of concentration on vesicles. MIG6(segments 1-2) inhibits this mutant kinase domain with an IC50 value of ˜200 nM (FIG. 25a). MIG6(segments 1-2) bearing a mutation within segment 1 (Y358A) inhibited L834R much less efficiently (IC50˜5 μM).
(§1) Kinase assays were performed using methods known in the art and described herein. The substrate peptide was kept at 1 mM in all the experiments. The reported rates are the initial velocities normalized by the kinase concentrations. The wild-type kinase concentrations in the vesicle-based and solution-based assays were […] respectively.
(§2) A continuous enzyme-coupled kinase assay was performed to measure the kinase activity of the proteins as described in Barker et al., ((1995) Biochemistry, Vol. 34(54): 14843-51), with modifications, as described herein. The ATP concentration was kept to 0.5 mM.
(§3) The buffer used contained 10 mM MgCl2, 20 mM Tris, and pH 7.5. […] The substrate peptide was derived from the region spanning Y1173 in EGFR ([…]). All proteins used in this assay contained the N-terminal (His)6 tag unless otherwise noted.

[2] = biological target: T3, wild-type EGFR kinase domain in solution (Homo sapiens, UniProt P00533); experiment: Kinase assay in solution, wild-type kinase domain (basal activity); type: biochemical; conditions: result in words
T3 construct: DNA encoding residues 672-998 of human EGFR was cloned into pFAST BAC HT; made in house; host or cells: Sf9 insect cells (baculovirus)
Protocol: as §1, §2, §3
The protein concentrations of the EGFR kinase domain used in the assay ranged from 3.5 to 14 μM. The total concentration of the DOGS-NTA-Ni in the bulk solution was kept to 12.5 μM in all assays with DOG-NTA-Ni-containing vesicles. For assays of the kinase domain attached to vesicles, the protein and vesicles were preincubated at 4° C. for ˜5 min.

B1: MIG6(M346A): full-length MIG6 with M346A mutation in segment 1, co-expressed in cells (protein)
chain: MSIAGVAAQEIRVPLKTGFLHNGRAMGNMRKTYWSSRSEFKNNFLNIDPITMAYSLNSSAQERLIPLGHASKSAPMNGHCFAENGPSQKSSLPPLLIPPSENLGPHEEDQVVCGFKKLTVNGVCASTPPLTPIKNSPSLFPCAPLCERGSRPLPPLPISEALSLDDTDCEVEFLTSSDTDFLLEDSTLSDFKYDVPGRRSFRGCGQINYAYFDTPAVSAADLSYVSDQNGGVPDPNPPPPQTHRRLRRSHSGPAGSFNKPAIRISNCCIHRASPNSDEDKPEVPPRVPIPPRPVKPDYRRWSAEVTSSTYSDEDRPPKVPPREPLSPSNSRTPSPKSLPSYLNGVAPPTQSFAPDPKYVSSKALQRQNSEGSASKVPCILPIIENGKKVSSTHYYLLPERPPYLDKYEKFFREAEETNGGAQIQPLPADCGISSATEKPDSKTKMDLGGHVKRKHLSYVVSP
modifications: left off: small tags and cut ends
notes: full-length MIG6 with M346A mutation in segment 1, co-expressed in cells
full-length EGFR
  EGF-induced autophosphorylation of EGFR: abolishes this effect

B2: MIG6(Y358A): full-length MIG6 with Y358A mutation in segment 1, co-expressed in cells (protein)
chain: B1 chain with A346M, Y358A
modifications: left off: small tags and cut ends
notes: full-length MIG6 with Y358A mutation in segment 1, co-expressed in cells
full-length EGFR
  EGF-induced autophosphorylation of EGFR: abolishes this effect

B3: MIG6(F352A): full-length MIG6 with F352A mutation in segment 1, co-expressed in cells (protein)
chain: B1 chain with A346M, F352A
modifications: left off: small tags and cut ends
notes: full-length MIG6 with F352A mutation in segment 1, co-expressed in cells
full-length EGFR
  EGF-induced autophosphorylation of EGFR: abolishes this effect

B4: MIG6(segments 1-2): longer MIG6 peptide, residues 336-412, expressed as Trp DLE fusion; M346 mutated to leucine (protein)
peptide: KSLPSYLNGVLPPTQSFAPDPKYVSSKALQRQNSEGSASKVPCILPIIENGKKVSSTHYYLLPERPPYLDKYEKFFR
[1]
  IC50: ~200 nM
[1]; result in words
  inhibition of L834R mutant kinase domain: much more strongly
[2]
  inhibition of basal activity of wild-type kinase domain in solution: much less potent

B5: MIG6(segments 1-2) Y358A: MIG6 residues 336-412 bearing a mutation within segment 1 (Y358A) (protein)
peptide: B4 peptide with Y23A
[1]
  IC50: ~5000 nM
[2]
  inhibition of basal activity of wild-type kinase domain in solution: does not show any inhibition
